Several values for one entry are separate records, joined by “and”; a condition that tells them apart may be missing. Equal values may be shown once.
Experiments:
regular 4T1-luc cells = test: Cytotoxicity, regular 4T1-luc cells; type: cell-based, murine; conditions: Mus musculus; regular 4T1-luc cells, 72 hours; read-out: IC50
Protocol: Cytotoxicity studies. The cytotoxicity was measured as previously described (Zhao, et al; Mol. Pharm, 2014; 11(8):2703-12). The incubation time was 72 hours. 4T1-lu mammosphere cells were generated as the previously described (Zhao, et al; Mol. Pharm, 2014; 11(8):2703-12).

[1] = Thermally-induced reversible phase transition (turbidity OD350 vs temperature); type: physicochemical
Source text: Characterization of thermally-induced, reversible, inverse phase transition of iTEPs and the iTEPB-iTEPA-pOVA fusion. The phase transitions of iTEP or iTEP fusions were characterized by turbidity changes of sample solutions as a function of temperature. Specifically, the optical density at 350 nm (OD350) of a sample solution was monitored using an UV-visible spectrophotometer equipped with a multi-cell thermoelectric temperature controller (Cary 300, Varian Instruments, Walnut Creek, CA) while the solution was heated from 20° C. to 80° C. and then cooled to 20° C. at a rate of 1° C./min. The maximum first derivative of the turbidity curve of a sample was identified. The transition temperature (Tt) of the sample is the temperature that corresponds to the maximum derivative.

C57BL/6 mice = test: Humoral immunogenicity: IgG titers by ELISA in sera of immunized mice; conditions: mouse, in vivo
Protocol: Immunization of iTEPs and collection of immune sera. C57BL/6 mice were immunized twice at their right hocks with iTEPs at a dose of 100 μg/mouse. […] At 1 week after the second immunization, 100 μL blood was collected from each immunized mouse. The blood samples were allowed to sit for 30 minutes to one hour at room temperature to clot. Sera were collected from the blood samples after the samples were spun for 10 min at 14,000 rpm at 4° C. The sera were kept at −80° C. before an analysis of the titers of iTEP-specific IgG.
Determination of IgG titers by ELISA. […] Plates were read at OD 450 nm (minus 570 nm for wavelength correction).
The end point titer of a serum IgG was defined as the reciprocal of the higher serum dilution which OD value from the ELISA assay is higher than a statistically valid cutoff. The titer results were expressed as IgG titers (Log 10) for each sample. […] The value of the cutoff was calculated using the following equation:^(31) Cutoff=X+SD t√{square root over (1+(1/n))} where X is the mean absorbance readings of independent PBS control sera, SD is the standard deviation of the readings, n is the number of independent PBS controls (mouse samples), t is the (1−α)th percentile of the one-tailed t-distribution with v=n−1 degrees of freedom.

CC(=O)O[C@H]1C(=O)[C@@]2(C)[C@H]([C@H](OC(=O)c3ccccc3)[C@]3(O)C[C@H](OC(=O)[C@H](O)[C@@H](NC(=O)c4ccccc4)c4ccccc4)C(C)=C1C3(C)C)[C@]1(OC(C)=O)CO[C@@H]1C[C@@H]2O [PTX, paclitaxel, reference compound]
IC50 (regular 4T1-luc cells): 6.3 nM

B1: G(…)21GG (protein)
chain: GVPGLGAGAGVPGLGAGAGVPGLGAGAGVPGLGAGAGVPGLGAGAGVPGLGAGAGVPGLGAGAGVPGLGAGAGVPGLGAGAGVPGLGAGAGVPGLGAGAGVPGLGAGAGVPGLGAGAGVPGLGAGAGVPGLGAGAGVPGLGAGAGVPGLGAGAGVPGLGAGAGVPGLGAGAGVPGLGAGAGVPGLGAGAGVPGLGAGAGVPGLGAGAGVPGLGAGAGVPGLGAGAGVPGLGAGAGVPGLGAGAGVPGLGAGAGVPGLGAGAGVPGLGAGAGVPGLGAGAGVPGLGAGAGVPGLGAGAGVPGLGAGAGVPGLGAGAGVPGLGAGAGVPGLGAGAGVPGLGAGAGVPGLGAGAGVPGLGAGAGVPGLGAGAGVPGLGAGAGVPGLGAGAGVPGLGAGAGVPGLGAGAGVPGLGAGAGVPGLGAGAGVPGLGAGAGVPGLGAGAGVPGLGAGAGVPGLGAGAGVPGLGAGAGVPGLGAGAGVPGLGAGAGVPGLGAGAGVPGLGAGAGVPGLGAGAGVPGLGAGAGVPGLGAGAGVPGLGAGAGVPGLGAGAGVPGLGAGAGVPGLGAGAGVPGLGAGAGVPGLGAGAGVPGLGAGAGVPGLGAGAGVPGLGAGAGVPGLGAGAGVPGLGAGAGVPGLGAGAGVPGLGAGAGVPGLGAGAGVPGLGAGAGVPGLGAGAGVPGLGAGAGVPGLGAGAGVPGLGAGAGVPGLGAGAGVPGLGAGAGVPGLGAGAGVPGLGAGAGVPGLGAGAGVPGLGAGAGVPGLGAGAGVPGLGAGAGVPGLGAGAGVPGLGAGAGVPGLGAGAGVPGLGAGAGVPGLGAGAGVPGLGAGAGVPGLGAGAGVPGLGAGAGVPGLGAGAGVPGLGAGAGGG
Relative Hydrophobicity [1]: High
(heating) Tt ([1]; 5 μM): 50.5 °C
Tt (cooling) ([1]; 25 μM in H2O): 34.00 ± 0.58 °C
Tt (heating) ([1]; 25 μM in H2O): 35.7 °C and 35.70 ± 0.58 °C
humoral immunogenicity (C57BL/6 mice): did not show different immunogenicity
